Measured values reported in article PMC4174979 (DNA repair, 2014).

B1: Sgs1_(157–257) (domain or fragment, S. cerevisiae, UniProt P35187 157-257, looked up)
chain: NKSVIDNSSIGKQLENDIKLEVIRLQGSLIMALKEQSKLLLQKCSIIESTSLSEDAKRLQLSRDIRPQLSNMSIRIDSLEKEIIKAKKDGMSKDQSKGRSQ
B2: BLM_(95–294) (domain or fragment, human, UniProt P54132 95-294, looked up)
chain: AGQETQRGGSKSLLPDFLQTPKEVVCTTQNTPTVKKSRDTALKKLEFSSSPDSLSTINDWDDMDDFDTSETSKSFVTPPQSHFVRVSTAQKSKKGKRNFFKAQLYTTNTVKTDLPPPSSESEQIDLTEEQKDDSEWLSSDVICIDDGPIAEVHINEDAQESDSLKTHLEDERDNSEKKKNLEEAELHSTEKVPCIEFDDD
B3: Sgs1_(103–322) (domain or fragment, S. cerevisiae, UniProt P35187 103-322, looked up)
chain: ADVPMVDIPASTSVVSNPRTPNGSKTHNFNTFRPHMASSLVENDSSRNLGSRNNNKSVIDNSSIGKQLENDIKLEVIRLQGSLIMALKEQSKLLLQKCSIIESTSLSEDAKRLQLSRDIRPQLSNMSIRIDSLEKEIIKAKKDGMSKDQSKGRSQVSSQDDNIISSILPSPLEYNTSSRNSNLTSTTATTVTKALAITGAKQNITNNTGKNSNNDSNNDD

Target: the molecule itself
Assay: SEC

Stoichiometry N, 6:
B1
B2
B3
